Measured values published in a protein production outcome set (Wang et al. 2014).

Test: label from the status in PepcDB records

Sequence | protein production
MTISWFQAALLGLFACLSSMPGLGGTTIGNYTLGRPLVGGLVCGLILGDIKTGIVCGVAMQLVYIALVTPGGTVSADVRAVSYIGIPLAMVAIHSQGLSATSSDAANLAKSMGTLVGTIGTVLFYGTATMNLVWQHIGWQAVEKREFKRLYVVDWGLPWISHIVFSFIPTLIMCKLGADAVTALKNALPMDGIPMKTLFTVGSLLPCVGIAILLKQIVEKAVDFIPFFVGFTLAASLGLNLVSCAVISLIFAVLFYELETIKNMRATASAEASDFDDDDEEDI | failed
MTNLEAKENNLIKDLASKQRVAIAYSGGIDSTYLLKVAVDELGKDNVLAMVVNSELFLDDEYNKALELAKDLGANAMGVSMSELADERIAANTPESWYYSKQLLYRTIKKAAAEKGFDIVLDGMIMDDNADFRPGMKARTEEGIVSSLQDADLYKSEIRELAKDRGISNWNKVASC | not failed
MKQSKIRSVLQSIALLVLAGTAAAEPKLEKITHGRFEQIPVLRPDGEPQRVVIWFSGAGHVDQRTRQAELLRQDGAMVALVDTTHLYKVLAADSNHCTFSVGDVENLSRYLQAYYRDKTYRLPLLVGDGDGSGLVYAVAAQAPENILAGVVTDGLCP | failed
MNKFFLESERLIIRPLEESDYDSWYTSFMNRGPSLTPFDDGILDMSMCDINWFKNLVNLQRKEWESDIVYIFGVFLKSGEHVGMLNIVTLARADMQWGELGYVFHNQFWSNGYAFESILALLNSTYEKLGFHHIEAQITPGNERSEKLVRRLGLTYETTRKDFSFENGKWTDKLIYSINLHNNNLE | failed
MQGADADTVADALASDDALPGAGGFAGELDGTLVRDVLGRYPLFVERAVSDEARLDPGQWSHDPTALADPRSFPAGHIRNESGTQQRWSLPSLDPFGDRETAIETVGETVETSIDAVDTDSLAIAFSGGVDSALLAARLDAPLYVAGFPDSHDIEAARSAAELLGTEVRVVELTHDAIERAVPEIARATARTNAMDVQIALPLYLVAERVAGDGFDRLALGQGADELFGGYAKVAKAPEDPRVEADTVRGAQREVIASLPDQLERDVLALRAAGVEPVTPLLHDRVIGAALRLDGDLLVDGETRKVALRAAARESLPDEIADRDKKAAQYGSLAARELDRLARQAGYKRRMDDHVTQYVESLVE | failed
MEELSAAEPGPEPGPEPESAPESESEPGPAGAGDAPGDGVIVTRALTKRYRGGQLAVDGLDLTVPAGSVFGFLGPNGSGKTTTIRMLMGLIEPTSGTARVLGRPMPRSARTVLPHIGALIEGPALYGFLSGRDNLLRYDAADPTADPRTRRTRVAATLDRVGLTAAAGKKAKAYSLGMKQRLGLAAALLQPRRLLVLDEPTNGLDPQGMREIRSLVRELASDGTTVFLSSHLLDEIEQVCTHAAVMAQGRLITQGAVADLAAGARGRLVVTTPDVTDAARVLKEQGVADIVVAEDRVTGEPPDGELAELNAALVTAAVRVRGFGVERASLEDAFVALTGEGFDVAGLEHHHHHH | failed
MTESVARLRGEQLTLGYGKYTVAENLTVEIPDGHFTAIIGPNGCGKSTLLRTLSRLMTPAHGHVWLDGEHIQHYASKEVARRIGLLAQNATTLGDITVQELVARGRYPHQPLFTRWRKEDEEAVTKAMQATGITHLADQSVDTLSGGQRQRAWIAMVLAQETAIMLLDEPTTWLDISHQIDLLELLSELNREKGYTLAAVLHDLNQACRYASHLIALREGKIVAQGAPKEIVTAELIERIYGLRCMIIDDPVAGTPLVVPLGRTAPSTANS | failed
MDQSTLRHRITDQFSYRGERADIWRAFDLLFDTDEFLNLGYSEWYQPHIAGSSQRRLVTEVGSRVASHLPTTDGVRLLDVGCGRGGPALHLAYQFGFNVTGVDLVPYNIQMATENARGKHLDSEFIIGDATQLPFTRDSFTACTAIDALVYLPERNRVFATVADTLEPEGVLVVSDLVMQSDVTETERRLVDSFADAWDMPSLGTVEGYKAALDETSFELKAVEDITKHSVGRFRKWTTLYLQLLTSPLRALIERLLGAYDLDPPAITEQVRKAHHALPFLRHVIFVAELETT | failed
MTKIYFAGPLFSQADLRYNAYLVEQIRQLDKTIDLYLPQENAAINDKSAYADSKMIALADTENVLASDLLVALLDGPTIDAGVASEIGVAYAKGIPVVALYTDSRQQGADNHQKLDALNEIAENQFHYLNLYTVGLIKLNGRVVSSEEDLLEEIKQRLS | not failed
MDYDQQPIMYDEVELLIQAVDQQPHPLLRLRDKAIIQLGLQGGFRRSELANLKVHYLSFMRDKLKVRLPFSKSNQQGLREWKSLPDSEPFAAYHAVKSWLNESQITDGHLFRSISRDGKTLRPYHVNDNSKPKSTFSRNSGFLNGDDIYRIIKQYCLKAGLPAQYYGAHSLRSGCVTQLHENNKDILYIMARTGHTDPRSLRHYLKPKEDLEHHHHHH | failed
MIVRSKPNLISVLISLKGSIAKRIALRSLLVTLLASAIVLIETLHPAYFSKVNATPFTLLGLSLSIFMSFRNNACYDRWYEARKALGTVVTEVRSMIRETQVLEDTRARSAILRDLCGFAHALKARLRREDELSAAETWLSQLPPASTSNLPDSLLRQIARQCSDQAQAGRLSEWRYLLLANQLAAITGAQSTCERIKATPLPFPYTLLLHRTSYMFCILLPFAMAEPLGWLTPIFTAIVSYTFFGLDAIGDELEDPFGHDENDLPLSAIVRNIEREILEALGATELPPALEPVDYVLS | failed
MAGAMIEARGLVKRFVSGRIRRRVVEALKGVSFSVYEGEIYSFLGPNGAGKTTTVRILSTLLDPDGGEARVAGFDVVKERWEVRKRIGVMLSVERGFYWKLTGRENLYYFGRIYGIPQGELKSRIKEVLDLVGLTDLGGADKPFEEMSLGMKARLGLARVLLKDPEVLILDEPTLGLDPASARTIRGVIRSLASEGRTIFITTHNMVEAEMISDRVGIIIGGRIAMEGTPDELKRRVFSSINLEFRVKASGHAAKKFFYDVKGEYGNRIVGGVTFSDGILTFRVSVNRDEPAEPIIDRITRLAYQYRFKILEIKALEPSLEDVFVAVSESGEARSGRVKGSIAQRLEHHHHHH | not failed
MRNGRLLEACDDIPEEDIPSRRYEASMCYLRGLCYAKQNAFDRAKEAYKDALRIDVQCFEAFSQLVKNSLMSPDEEDEFMQSLAFDSIRAPGDDPDMEDEPADYVHMLYQTQLSKYRNPQAFNTAIESLSTHYGLENNADILLAKADLLYTQCRFKDALAITESILMDDKYNFAVYPIHLACLYELRKTNVLFLIAHELADTHPDEPCTWLAVGIYYFTTGKIADARRYFSKASMMDANFGPAWIGFAHTFAAEGEHDQAVTAYSTAARLFTGTHLPQVFLGMQNHAMNNMTAAEEFLKTAYSLCKTDPLLLNEMGIVLYHQDRLKEAVKMFDQVMAFGTAEMSRASEKRRMETMLSKLLQSLRPSTTSAIFSRRSTILPL | failed
IFRVLDDVDTAVFNRVGTLTDGEMTVETVTADKGEDPELVLRVAGALAMESHHAISKALVKASREARDTGAGGEDVPHWIEVGNVEITEAGSFQATIELPLIKPSGEKIMRTTEALLWRPRSMTEVREHLSPRLVAAATSGGAPLIVRWKGKDRGVITLSDHVRSDSSDAIIAIEEQGIETMMLSRDTYPVARRYADSLGITHVLAGIAPGKKAQVVRAVHTRGSTVAMIGDESVMDCLKVADVGVLMGVDRPSDLRDDSDDPAADVVVMREEVMSVPTLFKLARRYAKLVNGNIALAWIYNGVAM | failed
MAIIPGVEQKPMSSNLESRIDQGTGREPADMVLKGGRFFDLVTGELVASDIAICGDTVVGTCGDYKGRHEIDISGKIVVPGFIDTHLHIESSLVTPHEFDRCVLPYGVTTAICDPHEIANVLGAEGLQFFLDSAMETIMDIRVQLSSCVPATHLETSGADLPIEKLLPFRNHPKVIGLAEFMNFPGVIHKDPVCMAKLEAFQGQHIDGHAPLLSGAALNGYLAAGIRTEHECTSAAEALEKIRKGMHILVREGSVSKDLHALMPIITERLSPYLALCTDDRNPLDIAEQGHLDYMIRTAIASGVEPLAIYRAASISAAKAFGLRDRGLVAPGWRADLVVIDTLQNCKASMVLSGGRLVDDALFATRKPVAPVGLDSVKARPVLASHFGVPVTEGETPVMGVLPGKIITEHRRYKLPTDGNQTTVDLENDIIKVAVIERHGKNGNHANGFVQGFGLKKGAIASTVGHDSHNICVVGVSEDDMALAANRLGDIKGGFVVVEDGRVTGEIALPVAGLMSLEPYETVRDTLHTLRKAAYALGTTLEEPFLQVAFLPLPVIPHLKISDMGMVDVDRFALI | failed
